A protein production outcome set (Wang et al. 2014)

test: label from the status in PepcDB records

Question: Which protein production does the source give for “MWLRSYRITFSCLTRLKTYRSSWKKLYSTSQTVDSKEVKTFQALAHSWWDEQGKFAPLHSMNDLRVPFIRDNLLKTSTNHDPGKPLSGMKILDVGCGGGLLTEPLGRLGASVVGIDPVAENIKIAQHHKSFDPVLDKRIQYRVCSLEETLNENAECFDAVVASEVVEHVNNLEMFIQCCYQVLKPGGSLFITTVNKTQLSYVLGIVFSEQIAGIVPKGTHTWEKFVSPEKLESILEPNGLSVETVAGMVYNPFSGYWHWTENTSLNYAAHAVRARAQEHLEPAESA” here?
Answer: failed

Question: For “MWNGREYMSEPASPEKKVIIIAGPNGAGKTTFAEEFLPQEAQCLTFINADLIAAGLAPFEPEQAAFRAGRLMLEEIYNHAQRGQNFAFETTLSGRSYARLIPTWQAQSYIVKLFFLQLLSPELAIARVAQRVRAGGHHVPEAIIRRRFAAGLHNLETLYKLIVDEWVCYDNSGNEPVLINKGGKLLEHHHHHH”, which protein production is on record?
Answer: not failed

Question: With “MWPNGSSLGPCFRPTNITLEERRLIASPWFAASFCVVGLASNLLALSVLAGARQGGSHTRSSFLTFLCGLVLTDFLGLLVTGTIVVSQHAALFEWHAVDPGCRLCRFMGVVMIFFGLSPLLLGAAMASERYLGITRPFSRPAVASQRRAWATVGLVWAAALALGLLPLLGVGRYTVQYPGSWCFLTLGAESGDVAFGLLFSMLGGLSVGLSFLLNTVSVATLCHVYHGQEAAQQRPRDSEVEMMAQLLGIMVVASVCWLPLLVFIAQTVLRNPPAMSPAGQLSRTTEKELLIYLRVATWNQILDPWVYILFRRAVLRRLQPRLSTRPRRVSLCGPAWSTVARSRLTATSASRVQAILVPQPPEQLGLQA” as the sequence, how does the protein production read?
Answer: failed

Question: Which protein production does the source give for “MWQNFYLTTLKLSQYTQEEKPILPADNMDPRALASVHAWEHGDFMCKGYIQSRLSDPLYNVYSNVETSNELWDSLDKKYQTKDAGSQKYAAAKFLDYKMVDSRPMMVQVEELTCLFHDI” here?
Answer: not failed

Question: Which protein production does the source give for “MWQQHLAILPILVPLLAALLQLLPWGDRPQPKRRAIGLLSSILTLILTIALLVQVNQDQMIVYALGNWSAPFGIVLMVDKLSALMMLVTAILALPVLIYGCYAEDNLGSHFQALFQFQIMGIMGAFATGDIFNLFVFFEVLLISSYALLMHGGGKFRLRTTLHYVLLNLLGSALFLISVGTLYGVTGTLNMADLATQVQQLSGDQAALAKAGGMMLLIVFGIKAAILPLHFWLPQAYSTTTGVVAALFAIMTKVGVYAIVRVYTLIFGPEANELALIAHDWLWVMGLVTMLAGAIGIIGARDLRLLVAYLVVISIGTLIATYSLNGIATTGAMLFYLIHSTFITGALFLLADLIAFERGKTASRIVSGKKMANHSAYSVMFLIAAIAIIGLPPLSGFVGKLMIMESASPTGASFWLWGAMLGATLIMLISVTRAGSKMLWHTLSGKANEQSAPLGKRAAVVMLLSLSVVMTLFASPIRNYTDDVAEQLYDIDQYPSRVLTKGAE” here?
Answer: failed

Question: For “MWRDTMSAFLGELIGTALLIVLGGGVCAGVSLKKSFAKDSGWIVITMGWGLAVAVAAYAVGSISGAHLNPALTIGLAFKGAFPWSDVPGYIVAQMIGAIIGAVIVYLHYLPHWKETEDPGTKLGVFATGPAIPNTFANLLSEMIGTFVLVFGILAIGANKFADGLNPFIVGFLIVSIGLSLGGTTGYAINPARDLGPRIAHFFLPIAGKGGSNWKYAWIPVVGPILGGSLAGLFHQVVFEGKQNSALIYVIIATVIVLAISYMTSKKSGSNTNSRKVA”, which protein production is on record?
Answer: failed

Question: With “MWRRSLTESHSNELRLELTSRIVSAYLSRNVIAPSELPHLIQQTYGSLGKTSEPTKTPATVEEQRPAVPIKKSVTDDFIVCLEDGKSFKSLKRHLMAKYALTPEQYREKWKLPADYPMVAPNYARKRSELARATGLGKKSAANLSPSLQAVRSA” as the sequence, how does the protein production read?
Answer: not failed

Question: With “MWRSLLLPTCSHALIELHFFSHYCTIMMNQNTQPTNNLKDKKITYNFNKLQKRLRRNVGNAIANFNMIEAGDKVMVCLSGGKDSYTLLDILLNLKLSAPINFDIVAVNLDQKQPGFPEHILPEYLASIGVEYKIVQENTYGIVKEKIPEGKTTCSLCSRLRRGILYRTATELGATKIALGHHRDDMLETLFLNMFYNGKLKSMPPKLISDDAKHIVIRPLAYCKEKDIEKYAEAKQFPIIPCNLCGSQPNLQRQVVKEMLQNWDRQYPGRIETMFSALQNVTPSHLCDTQLFNFKAVKHGEMINGIEGDIAFDKMDIPMTLNIQEEDEKQAYTQNGTIQFKAV” as the sequence, how does the protein production read?
Answer: failed

Question: With “MWSIFRKEIAVFLNSLIAYLVILVFLTFIGVFMWVLPASSILDYGYAEMDTLFSYGPLAFLLLIPAITMRSFAEEKKDGTIELLLTKPLSDWQLLLGKYLSACTLVALALIPTVLYYISVYQLGKPVG” as the sequence, how does the protein production read?
Answer: failed
